Experimental data published in paper PMC11109316, “In vivo neutralization of coral snake venoms with an oligoclonal nanobody mixture in a murine challenge model” (Nature Communications, 2024).

Biological target: T1, α-cobratoxin (Naja kaouthia, UniProt P01391)
T1 construct: also called long chain αNTx from Naja kaouthia; source: bought: Latoxan
Assay: DELFIA (dose-response, capture format)
Details: both partners purified

Binder | binding result
TPL0629_01_A07 (VHH, also called anti-αNTx VHH) VHH: QVQLQESGGGLVQAGGSLRLSCTASEGTVSYSTVGWFRQAPGGGRDLVAQSGSSDEDTHVAGSVKGRFTISRDNTNNTVYLQMSSLKPEDSAVYYCAAAPGDQYKYWGQGTQVTVSS | no binding (tested: 1 µM)
TPL0629_01_D11 (VHH, also called anti-αNTx VHH; monovalent VHH) VHH: QVQLQESGGGLVQAGGSLRLSCAGSGDALGSYTMGWFRQAPGGGRDLVAQISVDGSSTYHLDSVRGRFTASRDNAKNTVYLEMNSLNSEDTAVYYCAAAPLLRGNYDYWGQGTQVTVSS | no binding (tested: 1 µM)
TPL0629_01_G06 (VHH, also called anti-αNTx VHH) VHH: QVQLQESGGGLVQAGGSLRLSCAASGRAFSSYTMGWFRQAPGDMRELVAQITSSGSSTYHIDSVEGRFAISRDNAKNTVYLQMNSLQPEDAAIYYCAGGLNAYQYWGQGTQVTVSS | no binding (tested: 1 µM)
